# Data from patent publication US20210130436A1.
# Biological target: CD28 (human) (UniProt P10747)
# Experiment: cell-based or functional assay
"IL-2-luciferase RLU, Jurkat + K562/OKT3/PD-L1 aAPC, 50 nM","IL-2 release, primary T cells; K562/OKT3 (No PD-L1); 1 nM","IL-2 release, primary T cells; K562/OKT3 (No PD-L1); 10 nM","IL-2 release, primary T cells; K562/OKT3 (No PD-L1); 100 nM","Fold Increase over WT CD80-IgV-Fc, same assay, 50 nM","IL-2-luciferase RLU, Jurkat + CHO/OKT3/PD-L1 aAPC, 0.6 nM","IL-2-luciferase RLU, Jurkat + CHO/OKT3/PD-L1 aAPC, 1.9 nM","IL-2-luciferase RLU, Jurkat + CHO/OKT3/PD-L1 aAPC, 5.6 nM","IL-2-luciferase RLU, Jurkat + CHO/OKT3/PD-L1 aAPC, 16.7 nM","IL-2-luciferase RLU, Jurkat + CHO/OKT3/PD-L1 aAPC, 50 nM",Substance
3040 RLU,,,,,,,,,,WT CD80-ECD-Fc (effector) (from UniProt P33681 35-242) (Fc fusion)
526 RLU,,,,0.9 fold,,,,,,variant CD80 IgV-Fc (inert) A26E/E35D/M43T/M47L/L85Q/R94Q (Fc fusion)
416 RLU,,,,0.7 fold,,,,,,variant CD80 IgV-Fc (inert) A26E/Q33L/E35D/M47L/L85Q (Fc fusion)
569 RLU,,,,,,,,,,variant CD80 IgV-Fc (inert) A26E/Q33R/E35D/M47L/L85Q/K86E (Fc fusion)
,,,,,524 RLU,530 RLU,617 RLU,641 RLU,755 RLU,variant CD80 IgV-Fc (inert) A71D/L72V/E95K (Fc fusion)
1240 RLU,,,,2.2 fold,,,,,,variant CD80 IgV-Fc (inert) E7D/E35D/M47I/L97Q (Fc fusion)
3240 RLU,,,,5.7 fold,,,,,,variant CD80 IgV-Fc (inert) E24D/Q33L/E35D/M47V/K54R/L85Q (Fc fusion)
,,,,4 fold,,,,,,variant CD80 IgV-Fc (inert) E35D/D46V/M47I/A71G/F92V (Fc fusion)
473 RLU,,,,,,,,,,variant CD80 IgV-Fc (inert) E35D/M47I/E77A/L85Q/R94W (Fc fusion)
602 RLU,,,,1.1 fold,,,,,,variant CD80 IgV-Fc (inert) E35D/M47I/K54R/L85E (Fc fusion)
,,,,5 fold,,,,,,variant CD80 IgV-Fc (inert) E35D/M47L/L85Q (Fc fusion)
2650 RLU,,,,4.7 fold,,,,,,variant CD80 IgV-Fc (inert) H18L/V22A/E35D/M47L/N48T/L85Q (Fc fusion)
,,,,,628 RLU,621 RLU,795 RLU,974 RLU,1160 RLU,variant CD80 IgV-Fc (inert) H18Y/A26T/E35D/A71D/L85Q (Fc fusion)
4340 RLU,,,,,,,,,,variant CD80 IgV-Fc (inert) H18Y/E35D/V68M/L97Q (Fc fusion)
486 RLU,,,,0.9 fold,,,,,,variant CD80 IgV-Fc (inert) H18Y/Q33L/E35D/M47I (Fc fusion)
566 RLU,,,,,,,,,,variant CD80 IgV-Fc (inert) H18Y/V20A/Q33L/E35D/M47V/Y53F (Fc fusion)
432 RLU,,,,,,,,,,variant CD80 IgV-Fc (inert) Q33L/E35D/M47I/L85Q (Fc fusion)
393 RLU,,,,0.7 fold,,,,,,variant CD80 IgV-Fc (inert) Q33L/E35D/M47V (Fc fusion)

# Continued, substance first:
Substance,"IL-2-luciferase RLU, Jurkat + K562/OKT3/PD-L1 aAPC, 50 nM","IL-2 release, primary T cells; K562/OKT3 (No PD-L1); 1 nM","IL-2 release, primary T cells; K562/OKT3 (No PD-L1); 10 nM","IL-2 release, primary T cells; K562/OKT3 (No PD-L1); 100 nM","Fold Increase over WT CD80-IgV-Fc, same assay, 50 nM","IL-2-luciferase RLU, Jurkat + CHO/OKT3/PD-L1 aAPC, 0.6 nM","IL-2-luciferase RLU, Jurkat + CHO/OKT3/PD-L1 aAPC, 1.9 nM","IL-2-luciferase RLU, Jurkat + CHO/OKT3/PD-L1 aAPC, 5.6 nM","IL-2-luciferase RLU, Jurkat + CHO/OKT3/PD-L1 aAPC, 16.7 nM","IL-2-luciferase RLU, Jurkat + CHO/OKT3/PD-L1 aAPC, 50 nM"
WT IgG1 Fc Control,,7080,6920,6260,,,,,,
variant CD80 IgV-Fc (inert) A26E/E35D/M43I/M47L/L85Q/K86E/R94W (Fc fusion),498 RLU,,,,0.9 fold,,,,,
variant CD80 IgV-Fc (inert) A26E/Q33L/E35D/M47L (Fc fusion),476 RLU,,,,,,,,,
variant CD80 IgV-Fc (inert) A26E/Q33R/E35D/M47L/L85Q (Fc fusion),500 RLU,,,,0.9 fold,,,,,
variant CD80 IgV-Fc (inert) E35D/D46E/M47V/L97Q (Fc fusion),1090 RLU,,,,1.9 fold,,,,,
variant CD80 IgV-Fc (inert) E35D/M47L/A71G/L97Q (Fc fusion),2160 RLU,,,,3.8 fold,,,,,
variant CD80 IgV-Fc (inert) E35D/M47V/A71G/L85M/L97Q (Fc fusion),576 RLU,,,,,,,,,
variant CD80 IgV-Fc (inert) E35D/M47V/T62A/A71G/V83A/Y87H/L97M (Fc fusion),438 RLU,,,,,,,,,
variant CD80 IgV-Fc (inert) H18Y/A26E/Q33L/E35D/M47L/L85Q (Fc fusion),408 RLU,,,,0.7 fold,,,,,
variant CD80 IgV-Fc (inert) H18Y/E35D/M47L (Fc fusion),2980 RLU,,,,5.3 fold,,,,,
variant CD80 IgV-Fc (inert) H18Y/Y31H/E35D/M47V/A71G/L85Q (Fc fusion),455 RLU,,,,,,,,,
variant CD80 IgV-Fc (inert) Q27H/E35D/M47L/L85Q/R94Q/E95K (Fc fusion),513 RLU,,,,0.9 fold,,,,,
variant CD80 IgV-Fc (inert) Q27H/Q33L/E35D/M47V/N55D/L85Q/K89N (Fc fusion),551 RLU,,,,,,,,,
variant CD80 IgV-Fc (inert) Q33K/E35D/D46V/L85Q (Fc fusion),504 RLU,,,,0.9 fold,,,,,
variant CD80 IgV-Fc (inert) Q33K/E35D/M47V/K89E/K93R (Fc fusion),415 RLU,,,,0.7 fold,,,,,
variant CD80 IgV-Fc (inert) Q33L/E35D/D46E/M47I (Fc fusion),554 RLU,,,,,,,,,
variant CD80 IgV-Fc (inert) Q33L/E35D/M43I/L85Q/R94W (Fc fusion),553 RLU,,,,,,,,,
variant CD80 IgV-Fc (inert) Q33L/E35D/M43V/M47I/A71G (Fc fusion),473 RLU,,,,,,,,,
variant CD80 IgV-Fc (inert) Q33L/E35D/M47I (Fc fusion),423 RLU,,,,0.7 fold,,,,,
variant CD80 IgV-Fc (inert) Q33L/E35D/M47I/T62N/L85Q (Fc fusion),463 RLU,,,,,,,,,
variant CD80 IgV-Fc (inert) Q33L/E35D/M47L/A71G/F92S (Fc fusion),394 RLU,,,,0.7 fold,,,,,
variant CD80 IgV-Fc (inert) Q33L/E35D/M47L/V68M/L85Q/E88D (Fc fusion),572 RLU,,,,,,,,,
variant CD80 IgV-Fc (inert) Q33L/E35D/M47V/L85Q (Fc fusion),556 RLU,,,,,,,,,

# Same assay, conditions: not given
Substance,"IL-2-luciferase RLU, Jurkat + CHO/OKT3 aAPC (no PD-L1), 5.6 nM","IL-2-luciferase RLU, Jurkat + CHO/OKT3 aAPC (no PD-L1), 16.7 nM","IL-2-luciferase RLU, Jurkat + CHO/OKT3 aAPC (no PD-L1), 50 nM"
variant CD80 IgV-Fc (inert) A71D/L72V/E95K (Fc fusion),466 RLU,547 RLU,644 RLU
variant CD80 IgV-Fc (inert) H18Y/A26T/E35D/A71D/L85Q (Fc fusion),,660 RLU,926 RLU
